Data published in patent US20230135471A1, “UBIQUITIN VARIANTS WITH IMPROVED AFFINITY FOR 53BP1” (Integrated DNA Technologies, Inc., priority 2021, published 2023).

biological target: 53BP1 fragment (a.a. 1221-1718) fused to an adenylate cyclase fragment (two-hybrid) (UniProt Q12888); test: cell-based or functional assay

Substance | Experiment 1 Average Enrichment [log2] | Experiment 1 Rep 1 Enrichment [log2] | Experiment 1 Rep 2 Enrichment [log2] | Experiment 2 Average Enrichment [log2] | Experiment 2 Rep 1 Enrichment [log2] | Experiment 2 Rep 2 Enrichment [log2] | Percent GFP Positive Rep 1 [%] | Percent GFP Positive Rep 2 [%] | Percent GFP Positive Rep 3 [%]
i53 + K33C two-hybrid fusion (designed binder) | 1.96 | 2.85 | 1.07 | 0.77 | 0.55 | 0.99 | – | – | –
i53 + D32A two-hybrid fusion (designed binder) | 0.11 | 0.2 | 0.02 | 0.19 | 0.19 | 0.19 | – | – | –
i53 + S57R two-hybrid fusion (designed binder) | 0.02 | 0.05 | -0.01 | -0.18 | -0.32 | -0.03 | – | – | –
i53 + D21E two-hybrid fusion (designed binder) | 0.51 | 0.2 | 0.82 | -0.23 | -0.63 | 0.16 | – | – | –
i53 + T9S two-hybrid fusion (designed binder) | 0.4 | 0.34 | 0.47 | 0.18 | 0.19 | 0.17 | – | – | –
i53 + E16N two-hybrid fusion (designed binder) | 0.11 | -0.32 | 0.54 | 0.26 | 0.34 | 0.18 | – | – | –
i53 + S49D two-hybrid fusion (designed binder) | 0.41 | 0.11 | 0.71 | 0.44 | 0.39 | 0.49 | – | – | –
i53 + R42C two-hybrid fusion (designed binder) | 0.42 | 0.37 | 0.47 | 0.28 | 0.54 | 0.01 | – | – | –
i53 + I13H two-hybrid fusion (designed binder) | 0.5 | -0.27 | 1.28 | -1.6 | -2.48 | -0.71 | – | – | –
i53 + P38N two-hybrid fusion (designed binder) | 1.02 | 2.28 | -0.25 | -1.49 | -1.91 | -1.07 | – | – | –
i53 + R74E two-hybrid fusion (designed binder) | 0.38 | 0.53 | 0.23 | -0.1 | 0.14 | -0.35 | – | – | –
i53 + H68M two-hybrid fusion (designed binder) | 2.28 | 2.53 | 2.04 | 1.28 | 0.99 | 1.58 | 28.6 | 23.5 | 28.3
i53 + R42Y two-hybrid fusion (designed binder) | 1.57 | 1.44 | 1.69 | 1.19 | 1.13 | 1.26 | – | – | –
i53 + E18D two-hybrid fusion (designed binder) | -0.85 | -0.69 | -1.02 | 0.14 | 1.65 | -1.37 | – | – | –
i53 + S65H two-hybrid fusion (designed binder) | 1.1 | 0.69 | 1.5 | 1.16 | 1.34 | 0.98 | – | – | –
i53 + D32R two-hybrid fusion (designed binder) | 0.03 | 0.61 | -0.54 | -0.46 | -0.53 | -0.39 | – | – | –
i53 + K33I two-hybrid fusion (designed binder) | 2.03 | 1.91 | 2.14 | 0.91 | 1.32 | 0.5 | – | – | –
i53 + T55R two-hybrid fusion (designed binder) | -0.06 | 0.11 | -0.22 | 0.12 | 0.19 | 0.05 | – | – | –
i53 + S49E two-hybrid fusion (designed binder) | 0.44 | 0.84 | 0.04 | 0.81 | 0.96 | 0.67 | – | – | –
i53 + R42S two-hybrid fusion (designed binder) | -0.08 | -0.13 | -0.02 | 0.23 | 0.05 | 0.41 | – | – | –
i53 + E51D two-hybrid fusion (designed binder) | 0.52 | 0.31 | 0.72 | 0.61 | 0.29 | 0.92 | – | – | –
i53 + M1F two-hybrid fusion (designed binder) | 0.8 | 0.71 | 0.9 | 0.36 | 0.39 | 0.33 | – | – | –
i53 + T7L two-hybrid fusion (designed binder) | 0.61 | 0.62 | 0.61 | -0.19 | -0.07 | -0.31 | – | – | –
i53 + S65A two-hybrid fusion (designed binder) | 1.15 | 1.29 | 1.01 | 0.95 | 1.17 | 0.73 | – | – | –
i53 + R74M two-hybrid fusion (designed binder) | 1.04 | 1.16 | 0.91 | 0.68 | 0.68 | 0.68 | – | – | –
i53 + E18Y two-hybrid fusion (designed binder) | 0.72 | 1.28 | 0.17 | 0.82 | 1.2 | 0.44 | – | – | –
